Tests used:
[1] = target: T1, human MSLN-FL-his protein (human, UniProt Q13421 296-580); experiment: competitive ELISA; row F8-15.19
T1 construct: made in HEK293E cells, purified on nickel column; also called hMSLN-FL-his; human MSLN full-length protein; not shown: His tag

[2] = target: T1, human MSLN-FL-his protein; experiment: competitive ELISA; row F8-31.22
Protocol: (§1) In order to identify antigen-binding sites of antibodies, MSLN chimeric antibodies were grouped using competitive ELISA.
(§2) The chimeric antibodies were diluted to 2 μg/mL with PBS and allowed to coat 96-well high-adsorption ELISA plates at 50 μL/well. After the plates were coated at 4° C. overnight, 250 μL of a blocking buffer (PBS containing 2% (w/w) BSA) was added for two hours of blocking at room temperature. 40 μg/mL of the antibodies to be tested were added, and then the human MSLN-FL-His protein with an EC₈₀ concentration corresponding to each of the antibodies to be tested was added for incubation for 2 h. The plates were washed 5 times with PBS, an HRP-labeled anti-His secondary antibody (purchased from Genescript, Cat. No. A00612) was then added for incubation for 1 h, and the plates were washed 5 times again. A TMB substrate was added at 50 μL/well, and after 10 minutes of incubation at room temperature, a stop solution (1.0 M HCl) was added at 50 μL/well. OD₄₅₀ nm values were read using an ELISA plate reader (Insight, purchased from PerkinElmer), and the competition rate between the antibodies was calculated according to the OD₄₅₀ nm values using a formula.

[3] = target: T1, human MSLN-FL-his protein; experiment: competitive ELISA; row F8-13.8
Protocol: as §1, §2

[4] = target: T1, human MSLN-FL-his protein; experiment: competitive ELISA; row F8-4.5
Protocol: as §1, §2

[5] = target: T1, human MSLN-FL-his protein; experiment: competitive ELISA; row F8-7.5
Protocol: as §1, §2

[6] = target: T1, human MSLN-FL-his protein; experiment: competitive ELISA; row F8-12.13
Protocol: as §1, §2

[7] = target: T1, human MSLN-FL-his protein; experiment: competitive ELISA; row F8-19.21
Protocol: as §1, §2

[8] = target: T1, human MSLN-FL-his protein; experiment: competitive ELISA; row F8-18.9
Protocol: as §1, §2

[9] = target: T1, human MSLN-FL-his protein; experiment: competitive ELISA; row F8-5.15
Protocol: as §1, §2

[10] = target: T2, human MSLN-R3 protein expressed on HEK293T cells (HEK293T-hMSLN-R3) (human, UniProt Q13421 487-606); experiment: FACS on HEK293T-hMSLN-R3 cells;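 note: chimeric antibodies incubated with cells on ice for 2 h, binding read by flow cytometry as mean fluorescence intensity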
T2 construct: C-terminal limit uncertain
T2 sequence (Q13421 495-614): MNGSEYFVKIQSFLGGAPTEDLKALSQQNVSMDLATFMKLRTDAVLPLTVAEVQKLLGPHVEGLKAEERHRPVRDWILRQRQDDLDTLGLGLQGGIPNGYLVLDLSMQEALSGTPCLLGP

[11] = target: T3, human MSLN protein endogenously expressed on OVCAR3 tumor cells (human, UniProt Q13421 296-598); experiment: FACS on OVCAR3 cells;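 note: flow cytometry of chimeric antibody binding to OVCAR3 cells, 2 h on ice, read as cellular mean fluorescence intensity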
T3 construct: whole, on cells; endogenous expression on a tumor cell line; also called human mesothelin
T3 sequence (Q13421 other isoform, or with tags, fused parts or gaps): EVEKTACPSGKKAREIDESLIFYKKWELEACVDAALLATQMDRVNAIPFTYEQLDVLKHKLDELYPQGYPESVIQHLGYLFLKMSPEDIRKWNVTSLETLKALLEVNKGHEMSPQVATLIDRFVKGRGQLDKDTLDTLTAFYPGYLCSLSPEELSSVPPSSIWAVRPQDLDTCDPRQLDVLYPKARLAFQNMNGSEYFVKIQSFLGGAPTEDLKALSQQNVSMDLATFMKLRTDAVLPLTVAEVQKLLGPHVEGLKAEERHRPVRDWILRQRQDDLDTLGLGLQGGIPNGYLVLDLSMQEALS
Protocol: The desired cells were expanded to the logarithmic growth phase in a T-75 cell culture flask. […] After the cells from the previous step were subjected to cell counting, the cell pellet was resuspended to 2×10⁶ cells/mL in a blocking buffer of [PBS+2% (w/w) BSA] and added into a 96-well FACS reaction plate at 50 μL/well. A chimeric antibody (a sample to be tested) was added at 50 μL/well, and the plate was incubated on ice for 2 h. […] After the plate was centrifuged and washed 5 times with a PBST buffer, assay and analysis were performed by FACS (FACS CantoII, purchased from BD). Data analysis was performed by software (Flowjo) to obtain the mean fluorescence intensity (MFI) of the cells.

[12] = target: T1, human MSLN-FL-his protein; experiment: SPR (Biacore), antibody captured on Protein A chip;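 note: flow cell at 25 °C, antigen injected for 240 s at five concentrations from 200 nM downward, dissociation followed up to 600 s, double-referenced, fitted with Langmuir 1:1 model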
[13] = target: T1, human MSLN-FL-his protein; experiment: competitive ELISA; row Tab142
Protocol: as §1, §2

[14] = target: T1, human MSLN-FL-his protein; experiment: competitive ELISA; row F8-27.1
Protocol: as §1, §2

[15] = target: T1, human MSLN-FL-his protein; experiment: competitive ELISA; row Tab021
Protocol: as §1, §2

[16] = target: T4, human MSLN-R3-3 polypeptide (human); experiment: ELISA on coated antigen, antibody 0.0001 nM
T4 construct: also called human MSLN-R3-3 protein; hMSLN-R3-3
Protocol: (§3) The plate was sealed with a plastic film and incubated at 4° C. overnight. The next day, the plate was washed twice with PBST, and a blocking buffer [PBS+2% (w/w) BSA] was added for blocking at room temperature for 2 h. The blocking buffer was discarded, and a chimeric antibody or negative control antibody serially diluted from 100 nM was added at 50 μL/well. After incubation at 37° C. for 2 h, the plate was washed 3 times with PBST. […] After incubation at 37° C. for 2 h, the plate was washed 5 times with PBST. A TMB substrate was added at 50 μL/well for incubation at room temperature for 5-10 min, and then a stop solution (1.0 N HCl) was added at 50 μL/well.

[17] = target: T5, human MSLN-R3-his protein (human, UniProt Q13421 487-598); experiment: ELISA on coated antigen, antibody 0.01 nM
T5 construct: Self-made in HEK293E cells; also called human MSLN-R3 protein; hMSLN-R3-his; not shown: His tag
T5 sequence (Q13421 495-606): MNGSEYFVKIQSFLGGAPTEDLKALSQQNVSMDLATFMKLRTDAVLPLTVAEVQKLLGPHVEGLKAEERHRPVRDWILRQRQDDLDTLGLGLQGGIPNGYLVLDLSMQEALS

[18] = target: T6, human MSLN-R2-his protein (human, UniProt Q13421 391-486); experiment: ELISA on coated antigen, antibody 10 nM
T6 construct: Self-made in HEK293E cells; also called human MSLN-R2 protein; hMSLN-R2-his; not shown: His tag
T6 sequence (Q13421 other isoform, or with tags, fused parts or gaps): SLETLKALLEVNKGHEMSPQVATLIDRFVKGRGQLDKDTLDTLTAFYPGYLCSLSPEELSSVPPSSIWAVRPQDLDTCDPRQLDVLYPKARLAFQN

[19] = target: T6, human MSLN-R2-his protein; experiment: ELISA on coated antigen, antibody 0.01 nM
Protocol: as §3

[20] = target: T4, human MSLN-R3-3 polypeptide; experiment: ELISA on coated antigen, antibody 0.1 nM
Protocol: as §3

[21] = target: T4, human MSLN-R3-3 polypeptide; experiment: ELISA on coated antigen, antibody 100 nM
Protocol: as §3

[22] = target: T6, human MSLN-R2-his protein; experiment: ELISA on coated antigen, antibody 0.1 nM
Protocol: as §3

[23] = target: T5, human MSLN-R3-his protein; experiment: ELISA on coated antigen, antibody 0.1 nM
Protocol: as §3

[24] = target: T4, human MSLN-R3-3 polypeptide; experiment: ELISA on coated antigen, antibody 0.01 nM
Protocol: as §3

[25] = target: T5, human MSLN-R3-his protein; experiment: ELISA on coated antigen, antibody 1 nM
Protocol: as §3

[26] = target: T4, human MSLN-R3-3 polypeptide; experiment: ELISA on coated antigen, no antibody (column none)
Protocol: as §3

[27] = target: T5, human MSLN-R3-his protein; experiment: ELISA on coated antigen, antibody 10 nM
Protocol: as §3

[28] = target: T4, human MSLN-R3-3 polypeptide; experiment: ELISA on coated antigen, antibody 0.001 nM
Protocol: as §3

[29] = target: T4, human MSLN-R3-3 polypeptide; experiment: ELISA on coated antigen, antibody 10 nM
Protocol: as §3

[30] = target: T5, human MSLN-R3-his protein; experiment: ELISA on coated antigen, antibody 100 nM
Protocol: as §3

[31] = target: T6, human MSLN-R2-his protein; experiment: ELISA on coated antigen, antibody 0.001 nM
Protocol: as §3

[32] = target: T6, human MSLN-R2-his protein; experiment: ELISA on coated antigen, antibody 100 nM
Protocol: as §3

[33] = target: T5, human MSLN-R3-his protein; experiment: ELISA on coated antigen, no antibody (column none)
Protocol: as §3

[34] = target: T4, human MSLN-R3-3 polypeptide; experiment: ELISA on coated antigen, antibody 1 nM
Protocol: as §3

[35] = target: T6, human MSLN-R2-his protein; experiment: ELISA on coated antigen, antibody 1 nM
Protocol: as §3

[36] = target: T6, human MSLN-R2-his protein; experiment: ELISA on coated antigen, no antibody (column none)
Protocol: as §3

[37] = target: T6, human MSLN-R2-his protein; experiment: ELISA on coated antigen, antibody 0.0001 nM
Protocol: as §3

[38] = target: T5, human MSLN-R3-his protein; experiment: ELISA on coated antigen, antibody 0.001 nM
Protocol: as §3

[39] = target: T5, human MSLN-R3-his protein; experiment: ELISA on coated antigen, antibody 0.0001 nM
Protocol: as §3

T1 sequence (Q13421 other isoform, or with tags, fused parts or gaps): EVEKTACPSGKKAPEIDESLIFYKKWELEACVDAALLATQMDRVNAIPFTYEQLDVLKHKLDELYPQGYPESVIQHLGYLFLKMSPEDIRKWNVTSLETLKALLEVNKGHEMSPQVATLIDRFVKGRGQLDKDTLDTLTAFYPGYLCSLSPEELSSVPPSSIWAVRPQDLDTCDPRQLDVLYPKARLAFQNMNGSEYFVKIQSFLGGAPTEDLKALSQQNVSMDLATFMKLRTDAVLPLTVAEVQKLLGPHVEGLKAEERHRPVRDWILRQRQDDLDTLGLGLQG

B1: S009-F8-31.22 (antibody, human IgG1, kappa, V domains shown)
VH: EVQLVESGGDLVKPGGSLKLSCAASGFTFSTYGMSWVRQTPDKRLEWVATISSGGSYTYYPDSLKGRFTISRDNAKNTLYLQMSSLKSEDTAMYYCARHEGYYYGKDYWGQGTTLTVSS
VL: DIVLTQSPATLSVTPGDSVSLSCRASHSISNNLHWYQQKSHESPRLLIKYASQSISGIPSKFSGSGSGTDFTLSINSVETEDFGMYFCQQTNSWPLTFGAGTKLELKR
notes: human-murine chimeric antibody, human IgG1/kappa constant regions
[1]
  competition rate: 83.2%
[2]
  competition rate: 69.3%
[3]
  competition rate: 5.21%
[4]
  competition rate: -2.53%
[5]
  competition rate: 18.1%
[6]
  competition rate: 64.8%
[7]
  competition rate: 16.3%
[8]
  competition rate: 0.11%
[9]
  competition rate: 86.5%
[10]
  Maximum mean fluorescence intensity: 189
  binding result: no binding
[11]
  EC50: 0.64 nM
  Maximum mean fluorescence intensity: 7750
[12]
  Kd: 87.6 nM
  koff: 0.0276 s⁻¹
  kon: 315000 M⁻¹ s⁻¹
[13]
  competition rate: 12.9%
[14]
  competition rate: 11.7%
[15]
  competition rate: 10.3%

B2: S009-F2.13.3 (antibody, human IgG1, kappa, V domains shown)
VH: QVQLQQSGAELMKPGASVKLSCKATGYTFTGYWIEWVKQRPGHGLEWIGEILPGSGSTNYNEKFKGKATFTADTSSNTAYMQLSSLTTEDSAIYYCARAGAWFAYWGQGTLVTVSA
VL: QIVLTQSPAIMSASLGERVTMTCTASSSVSSSYLHWYQQKPGSSPKLWTYSTSNLASGVPARFSGSGSGTSYSLTISSMEAEDAATYYCHQYHRSPWTFGGGTKLEIKR
notes: Human-murine chimeric antibody: murine VH/VL on human IgG1 heavy and kappa light constant regions
[16]
  OD450: 0.05 OD450
[17]
  OD450: 0.05 OD450
[18]
  OD450: 0.06 OD450
[19]
  OD450: 0.05 OD450
[20]
  OD450: 0.05 OD450
[21]
  OD450: 0.06 OD450
[22]
  OD450: 0.05 OD450
[23]
  OD450: 0.05 OD450
[24]
  OD450: 0.05 OD450
[25]
  OD450: 0.05 OD450
[26]
  OD450: 0.05 OD450
[27]
  OD450: 0.06 OD450
[28]
  OD450: 0.05 OD450
[29]
  OD450: 0.07 OD450
[30]
  OD450: 0.06 OD450
[31]
  OD450: 0.05 OD450
[32]
  OD450: 0.07 OD450
[33]
  OD450: 0.06 OD450
[34]
  OD450: 0.05 OD450
[35]
  OD450: 0.05 OD450
[36]
  OD450: 0.06 OD450
[37]
  OD450: 0.06 OD450
[38]
  OD450: 0.06 OD450
[39]
  OD450: 0.05 OD450

B3: S009-F8-13.8 (antibody, human IgG1, kappa, V domains shown)
VH: EFQLQQSGPELVKPGASVKISCKASGYSFTDYNMNWVKQTNGKSLEWIGIINPNYGTSSYNQKFKGKATLTVDQSSSTAYMQLNSLTSEDSAVYYCARVGRDNSGFDYWGQGTTLTVSS
VL: QIVLTQSPAIMSASPGEKVTMTCSASSSVSYMYWYQQKPGSSPRLLIYDTSNLASGVPVRFSGSGSGTSYSLTISRMEAEDAATYYCQQWSSYPPTFGSGTELEIKR
notes: as for B1
[1]
  competition rate: 99.8%
[2]
  competition rate: 99%
[3]
  competition rate: 86.2%
[4]
  competition rate: 93%
[5]
  competition rate: -135%
[6]
  competition rate: 97.9%
[7]
  competition rate: 96.5%
[8]
  competition rate: 11.3%
[9]
  competition rate: 99.9%
[10]
  Maximum mean fluorescence intensity: 95
  binding result: no binding
[11]
  EC50: 1.42 nM
  Maximum mean fluorescence intensity: 13000
[12]
  Kd: 0.95 nM
  koff: 0.00125 s⁻¹
  kon: 1.31e+06 M⁻¹ s⁻¹
[13]
  competition rate: 93.8%
[14]
  competition rate: 98.4%
[15]
  competition rate: 14.2%

B4: S009-F8-15.19 (antibody, human IgG1, kappa, V domains shown)
VH: EFQLQQSGPELVKPGASVKISCKASGYSFTDYNMNWVKQSNGKSLEWIGIINPYYGTTSNNQNFKGKATLTVDQSSSTAYMQLNSLTSDDSAVYYCARWLRRDAMDYWGQGTSVTVSS
VL: DIVMTPSHKFMSTSVGDRVSIACKASQDVGSSVAWYQQKPGQSPKLLIYWTSTRHTGVPDRFTGSGSGTDFTLTISNVQSEDLADYFCQQYSSYPWTFGGGTKLEIKR
notes: as for B1
[1]
  competition rate: 94.1%
[2]
  competition rate: 90.7%
[3]
  competition rate: 24%
[4]
  competition rate: 43.8%
[5]
  competition rate: -117%
[6]
  competition rate: 89.3%
[7]
  competition rate: 46.9%
[8]
  competition rate: 8.37%
[9]
  competition rate: 99.3%
[10]
  Maximum mean fluorescence intensity: 165
  binding result: no binding
[11]
  EC50: 3.16 nM
  Maximum mean fluorescence intensity: 8140
[12]
  Kd: 5.37 nM
  koff: 0.00724 s⁻¹
  kon: 1.35e+06 M⁻¹ s⁻¹
[13]
  competition rate: 39.3%
[14]
  competition rate: 75.5%
[15]
  competition rate: -2.08%

B5: S009-F8-5.15 (antibody, human IgG1, kappa, V domains shown)
VH: QVQLQQPGTELVKPGASVKLSCKASGYTFTSYWMHWVKQRPGQGLEWIGHSNPSNGGTNYNEKFKSKATLTVDKSSSTAYMQLSSLTSEDSAVYYCARWVRGSNYEYFDVWGTGTTVTVSS
VL: DIVMTQSQKFMSTTVGDRVSIICKASQNVGSAVAWCQQKPGQSPKLLIYSASNRYTGVPDRFTGSGSGTDFTLTISNMQSEDLADYFCQQYSSYPLTFAGGTKLEIKR
notes: as for B1
[1]
  competition rate: 82.2%
[2]
  competition rate: 79%
[3]
  competition rate: 7.5%
[4]
  competition rate: 29.6%
[5]
  competition rate: -148%
[6]
  competition rate: 79.2%
[7]
  competition rate: 25.5%
[8]
  competition rate: 8.9%
[9]
  competition rate: 96.8%
[10]
  Maximum mean fluorescence intensity: 98
  binding result: no binding
[11]
  EC50: 4.08 nM
  Maximum mean fluorescence intensity: 4920
[12]
  Kd: 27.4 nM
  koff: 0.017 s⁻¹
  kon: 620000 M⁻¹ s⁻¹
[13]
  competition rate: 15.3%
[14]
  competition rate: 39.7%
[15]
  competition rate: 1.09%

From US20250250357A1 (NANJING ZAIMING PHARMACEUTICAL, published 2025)
